Assay results from the supplement of paper PMC10065799, “High-throughput profiling of sequence recognition by tyrosine kinases and SH2 domains using bacterial peptide display” (eLife, 2023).

Molecular target: EPHB1 (UniProt P54762)
Assay: phosphorylation enrichment, bacterial display (enrichment ratio); higher = better substrate or ligand; peptides without Tyr show the background
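For SH2 binding enrichment of the phosphorylated peptide, bacterial display in this document: peptide library displayed on the E. coli surface as eCPX fusions, selected cells deep-sequenced, score is each peptide's frequency after selection divided by its frequency in the input.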
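For phosphorylation enrichment, bacterial display in this document: 11-residue human phosphosite peptides and single-mutation variants displayed on the E. coli surface, counted by deep sequencing, each peptide's frequency after selection divided by its frequency in the unselected input library; frequency after pTyr selection over input frequency; kinase dosed for 20-30% of maximal phosphorylation in three min.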

Sequence of EPHB1 (P54762 whole entry, looked up): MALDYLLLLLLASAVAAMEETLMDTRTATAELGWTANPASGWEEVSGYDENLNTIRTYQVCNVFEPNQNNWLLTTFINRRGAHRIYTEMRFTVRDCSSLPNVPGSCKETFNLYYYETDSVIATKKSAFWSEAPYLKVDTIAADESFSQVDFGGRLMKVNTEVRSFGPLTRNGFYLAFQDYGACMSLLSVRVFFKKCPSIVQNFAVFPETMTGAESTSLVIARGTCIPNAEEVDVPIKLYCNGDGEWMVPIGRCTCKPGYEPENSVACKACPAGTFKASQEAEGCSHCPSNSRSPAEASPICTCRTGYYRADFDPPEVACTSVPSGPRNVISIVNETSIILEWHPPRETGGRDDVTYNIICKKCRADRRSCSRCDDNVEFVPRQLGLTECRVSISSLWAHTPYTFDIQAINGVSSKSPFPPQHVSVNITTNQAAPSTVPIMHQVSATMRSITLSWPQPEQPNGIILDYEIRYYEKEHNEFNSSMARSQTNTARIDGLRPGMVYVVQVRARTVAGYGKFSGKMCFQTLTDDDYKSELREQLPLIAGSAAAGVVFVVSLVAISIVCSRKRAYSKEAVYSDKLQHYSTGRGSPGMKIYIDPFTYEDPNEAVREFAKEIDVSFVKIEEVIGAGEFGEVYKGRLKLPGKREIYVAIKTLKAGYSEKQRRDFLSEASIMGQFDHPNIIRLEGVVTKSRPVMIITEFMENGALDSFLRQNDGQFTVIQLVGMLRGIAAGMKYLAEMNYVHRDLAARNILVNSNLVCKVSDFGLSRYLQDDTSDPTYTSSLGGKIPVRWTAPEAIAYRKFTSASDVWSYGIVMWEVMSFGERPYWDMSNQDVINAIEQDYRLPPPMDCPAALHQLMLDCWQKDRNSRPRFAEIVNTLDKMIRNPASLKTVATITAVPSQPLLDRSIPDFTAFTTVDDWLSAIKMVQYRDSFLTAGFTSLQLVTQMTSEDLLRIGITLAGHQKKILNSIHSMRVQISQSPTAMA

Sequence | phosphorylation enrichment
NTDETYCIDNK [TUBB3_Y200_E205K] | 0.721
IYLGAYDRFLP [SLC22A5_Y486_V481I] | 2.18
GTSLIYWILFT [G6PC3_Y214_T216I] | 1
MHDSNSVSKGS [PDGFRA_Y849_Y849S] | 0.282
KWRGQYDVAIK [BTK_Y425] | 0.399
VPTSKYRGGGG [HBA1_Y141_L137P] | 0.284
ADAHHYLCKEV [JAK2_Y382] | 0.851
YSPCDYQPCLA [TNS1_Y798_Y796C] | 13.9
LFFFSYLLKNH [PTEN_Y180_V175L_YF] | 0.443
CTTIHYNYMRN [TP53_Y234_C238R] | 0.605
GHLFAYNWISI [BEST1_Y227_D228N_YF] | 0.51
LRRFIYRPPDQ [OTOF_Y1231_R1236Q] | 0.409
KRAIGHYSATS [FAM120A_Y327_Y327H] | 0.305
CTTIHYNFRCN [TP53_Y234_M237R_YF] | 0.536
CATIHYNYMCN [TP53_Y234_T230A] | 0.591
RNNIEYVRDIG [MUSK_Y577] | 0.437
MARDISRASYY [ALK_Y1278_Y1278S] | 0.422

Sequence | phosphorylation enrichment
HEKRAYICAHP [ACAD9_Y611_L606H] | 0.454
LADKPYTFEDY [FXN_Y118] | 0.736
LLASRYDSPIN [ABLIM1_Y638] | 1.58
RLDPVYFVAPA [LAMC2_Y250] | 5.28
IGEGTYRQVYK [CDK13_Y716_G717R] | 0.289
EQLQSYQVEII [KRT33A_Y268_A270V] | 0.67
FKIFLYTLNDN [FN1_Y1975_YF] | 0.624
DENWFYTRAAF [RPS19_Y54_S59F] | 0.681
VRFMAYTDEIF [F8_Y450_T454I] | 0.598
AQPHTYEEPGR [EPHA8_Y616_E612Q] | 0.519
TSPALYRLDLD [TRIL_Y352_A347T] | 0.567
NTTIHYNFMCN [TP53_Y234_C229N_YF] | 0.698
GTATAYLCGVK [ALPL_Y117] | 0.512
QKMADYSNKLF [PDPR_Y104_YF] | 0.662
HDEPTYARSSK [PEAK1_Y616] | 0.478
IGRWVYPLTPE [EIF2B5_Y319_R315G] | 0.563

Molecular target: Grb2 SH2 (UniProt P62993)
Assay: SH2 binding enrichment of the phosphorylated peptide, bacterial display (enrichment ratio); higher = better substrate or ligand; peptides without Tyr show the background

Sequence | SH2 binding enrichment
NTDETYCIDNK [TUBB3_Y200_E205K] | 0.96
IYLGAYDRFLP [SLC22A5_Y486_V481I] | 0.979
MHDSNSVSKGS [PDGFRA_Y849_Y849S] | 0.787
GHLFAYNWISI [BEST1_Y227_D228N_YF] | 0.993
CTTIHYNFRCN [TP53_Y234_M237R_YF] | 1.61
RNNIEYVRDIG [MUSK_Y577] | 1.21
HEKRAYICAHP [ACAD9_Y611_L606H] | 0.96
LADKPYTFEDY [FXN_Y118] | 0.758
RLDPVYFVAPA [LAMC2_Y250] | 0.897
EQLQSYQVEII [KRT33A_Y268_A270V] | 0.832
VRFMAYTDEIF [F8_Y450_T454I] | 1.07
AQPHTYEEPGR [EPHA8_Y616_E612Q] | 1.08
HDEPTYARSSK [PEAK1_Y616] | 0.92

The remaining lines, values ahead:

SH2 binding enrichment | Sequence
0.742 | GTSLIYWILFT [G6PC3_Y214_T216I]
1.34 | KWRGQYDVAIK [BTK_Y425]
0.929 | VPTSKYRGGGG [HBA1_Y141_L137P]
0.849 | ADAHHYLCKEV [JAK2_Y382]
0.874 | YSPCDYQPCLA [TNS1_Y798_Y796C]
0.901 | LFFFSYLLKNH [PTEN_Y180_V175L_YF]
1.17 | CTTIHYNYMRN [TP53_Y234_C238R]
0.595 | LRRFIYRPPDQ [OTOF_Y1231_R1236Q]
1.12 | KRAIGHYSATS [FAM120A_Y327_Y327H]
1.23 | CATIHYNYMCN [TP53_Y234_T230A]
0.776 | MARDISRASYY [ALK_Y1278_Y1278S]
0.704 | LLASRYDSPIN [ABLIM1_Y638]
0.874 | IGEGTYRQVYK [CDK13_Y716_G717R]
0.741 | FKIFLYTLNDN [FN1_Y1975_YF]
0.73 | DENWFYTRAAF [RPS19_Y54_S59F]
0.685 | TSPALYRLDLD [TRIL_Y352_A347T]
0.848 | NTTIHYNFMCN [TP53_Y234_C229N_YF]
0.763 | GTATAYLCGVK [ALPL_Y117]
1.03 | QKMADYSNKLF [PDPR_Y104_YF]
0.962 | IGRWVYPLTPE [EIF2B5_Y319_R315G]

Molecular target: SHP2-C SH2
Assay: as above

Sequence | SH2 binding enrichment
NTDETYCIDNK [TUBB3_Y200_E205K] | 0.955
IYLGAYDRFLP [SLC22A5_Y486_V481I] | 2.29
MHDSNSVSKGS [PDGFRA_Y849_Y849S] | 0.595
GHLFAYNWISI [BEST1_Y227_D228N_YF] | 1.13
CTTIHYNFRCN [TP53_Y234_M237R_YF] | 1.67
RNNIEYVRDIG [MUSK_Y577] | 0.725
HEKRAYICAHP [ACAD9_Y611_L606H] | 0.962
LADKPYTFEDY [FXN_Y118] | 0.588
RLDPVYFVAPA [LAMC2_Y250] | 0.915
EQLQSYQVEII [KRT33A_Y268_A270V] | 0.629
VRFMAYTDEIF [F8_Y450_T454I] | 0.72
AQPHTYEEPGR [EPHA8_Y616_E612Q] | 0.794
HDEPTYARSSK [PEAK1_Y616] | 0.819

Results, then the sequence that gave them:

SH2 binding enrichment | Sequence
0.695 | GTSLIYWILFT [G6PC3_Y214_T216I]
0.935 | KWRGQYDVAIK [BTK_Y425]
0.597 | VPTSKYRGGGG [HBA1_Y141_L137P]
0.626 | ADAHHYLCKEV [JAK2_Y382]
0.908 | YSPCDYQPCLA [TNS1_Y798_Y796C]
0.696 | LFFFSYLLKNH [PTEN_Y180_V175L_YF]
1.31 | CTTIHYNYMRN [TP53_Y234_C238R]
0.391 | LRRFIYRPPDQ [OTOF_Y1231_R1236Q]
0.564 | KRAIGHYSATS [FAM120A_Y327_Y327H]
3.31 | CATIHYNYMCN [TP53_Y234_T230A]
0.519 | MARDISRASYY [ALK_Y1278_Y1278S]
0.991 | LLASRYDSPIN [ABLIM1_Y638]
0.89 | IGEGTYRQVYK [CDK13_Y716_G717R]
0.588 | FKIFLYTLNDN [FN1_Y1975_YF]
0.96 | DENWFYTRAAF [RPS19_Y54_S59F]
0.465 | TSPALYRLDLD [TRIL_Y352_A347T]
0.701 | NTTIHYNFMCN [TP53_Y234_C229N_YF]
0.695 | GTATAYLCGVK [ALPL_Y117]
0.945 | QKMADYSNKLF [PDPR_Y104_YF]
0.878 | IGRWVYPLTPE [EIF2B5_Y319_R315G]

Molecular target: c-Src SH2
Assay: as above

Sequence | SH2 binding enrichment
NTDETYCIDNK [TUBB3_Y200_E205K] | 0.572
IYLGAYDRFLP [SLC22A5_Y486_V481I] | 0.726
MHDSNSVSKGS [PDGFRA_Y849_Y849S] | 0.465
GHLFAYNWISI [BEST1_Y227_D228N_YF] | 0.916
CTTIHYNFRCN [TP53_Y234_M237R_YF] | 1.48
RNNIEYVRDIG [MUSK_Y577] | 0.634
HEKRAYICAHP [ACAD9_Y611_L606H] | 0.969
LADKPYTFEDY [FXN_Y118] | 0.446
RLDPVYFVAPA [LAMC2_Y250] | 0.594
EQLQSYQVEII [KRT33A_Y268_A270V] | 0.457
VRFMAYTDEIF [F8_Y450_T454I] | 0.554
AQPHTYEEPGR [EPHA8_Y616_E612Q] | 14.5
HDEPTYARSSK [PEAK1_Y616] | 0.576

Next, values leading:

SH2 binding enrichment | Sequence
0.593 | GTSLIYWILFT [G6PC3_Y214_T216I]
1.21 | KWRGQYDVAIK [BTK_Y425]
0.558 | VPTSKYRGGGG [HBA1_Y141_L137P]
0.518 | ADAHHYLCKEV [JAK2_Y382]
2.46 | YSPCDYQPCLA [TNS1_Y798_Y796C]
0.769 | LFFFSYLLKNH [PTEN_Y180_V175L_YF]
1.83 | CTTIHYNYMRN [TP53_Y234_C238R]
0.359 | LRRFIYRPPDQ [OTOF_Y1231_R1236Q]
0.778 | KRAIGHYSATS [FAM120A_Y327_Y327H]
6.91 | CATIHYNYMCN [TP53_Y234_T230A]
0.433 | MARDISRASYY [ALK_Y1278_Y1278S]
2.63 | LLASRYDSPIN [ABLIM1_Y638]
0.589 | IGEGTYRQVYK [CDK13_Y716_G717R]
0.428 | FKIFLYTLNDN [FN1_Y1975_YF]
0.571 | DENWFYTRAAF [RPS19_Y54_S59F]
0.36 | TSPALYRLDLD [TRIL_Y352_A347T]
0.598 | NTTIHYNFMCN [TP53_Y234_C229N_YF]
0.432 | GTATAYLCGVK [ALPL_Y117]
0.385 | QKMADYSNKLF [PDPR_Y104_YF]
0.62 | IGRWVYPLTPE [EIF2B5_Y319_R315G]
